Source: patent US20190175688A1 (DREXEL UNIVERSITY, published 2019)
Starred links: 1 amine or outer side, 2 acyl side, 3 side chain; linkers in the order of their positions; H or OH if unused. Positions of bridges follow the written chain, without caps; N, C: chain ends. Non-standard residues stand in square brackets, D forms with d. No end group written: not given here. X2 = (2S,4S)‑4‑(4-ferrocenyl-1H-1,2,3-triazol-1-yl)pyrrolidine‑2‑carboxylic acid, O=C([C@@H]1C[C@H](n2cc(-[c-]3cccc3)nn2)CN1[*:1])[*:2].[Fe+2].c1cc[cH-]c1; X3 = (2S,4S)‑4‑(4-ferrocenyl-1H-1,2,3-triazol-1-yl)proline, O=C([C@@H]1C[C@H](n2cc(-[c-]3cccc3)nn2)CN1[*:1])[*:2].[Fe+2].c1cc[cH-]c1; Pro(cis-4-Trz(4-CH2CH2Ph)) = O=C(O)[C@@H]1C[C@H](n2cc(CCc3ccccc3)nn2)CN1; Bta = N[C@@H](Cc1csc2ccccc12)C(=O)O; Gly(cPr) = N[C@H](C(=O)O)C1CC1; Nle = CCCC[C@H](N)C(=O)O; Orn = NCCC[C@H](N)C(=O)O; Dab = NCC[C@H](N)C(=O)O

Experiments:
[1] = molecular target: T1, HIV-1 YU-2 gp120 (wild-type gp120YU-2, monomeric) (HIV-1 (YU-2), UniProt P35961 32-498); assay: SPR competition, 17b inhibition: inhibition of gp120 binding to immobilized mAb 17b
T1 construct: domain: gp120; only gp120 stood in the assay

[2] = molecular target: T1, HIV-1 YU-2 gp120 (wild-type gp120YU-2, …); assay: SPR competition, sCD4 inhibition: inhibition of gp120 binding to immobilized sCD4
[3] = molecular target: T1, HIV-1 YU-2 gp120 (wild-type gp120YU-2, …); assay: SPR competition: fixed 250 nM HIV-1 YU-2 gp120 with increasing peptide passed over immobilized sCD4; inhibition of gp120 binding to sCD4
[4] = molecular target: T1, HIV-1 YU-2 gp120 (wild-type gp120YU-2, …); assay: SPR competition (Biacore 3000): 250 nM gp120 YU-2 with increasing peptide over immobilised sCD4
[5] = molecular target: T1, HIV-1 YU-2 gp120 (wild-type gp120YU-2, …); assay: SPR competition (Biacore 3000): 250 nM gp120 YU-2 with increasing peptide over immobilised mAb 17b
[6] = molecular target: HIV-1 BaL.01 envelope on BaL.01 pseudotyped virus (HIV-1 (BaL.01)); assay: cell-based or functional assay
[7] = molecular target: T2, HIV-1 JR-FL envelope (gp120) on JR-FL pseudotyped virus (HIV-1 (JR-FL)); assay: cell-based or functional assay
[8] = molecular target: T2, HIV-1 JR-FL envelope (gp120) on JR-FL …; assay: cell-based or functional assay; remark: listed apart in the source
[9] = molecular target: T1, HIV-1 YU-2 gp120 (wild-type gp120YU-2, …); assay: SPR competition binding assay on gp120
[10] = molecular target: T1, HIV-1 YU-2 gp120 (wild-type gp120YU-2, …); assay: SPR competition: fixed 250 nM HIV-1 YU-2 gp120 with increasing peptide passed over immobilized sCD4; inhibition of gp120 binding to sCD4; remark: listed apart in the source
[11] = molecular target: T1, HIV-1 YU-2 gp120 (wild-type gp120YU-2, …); assay: >
[12] = molecular target: T1, HIV-1 YU-2 gp120 (wild-type gp120YU-2, …); assay: SPR competition: fixed 250 nM HIV-1 YU-2 gp120 with increasing peptide passed over immobilized mAb 17b; inhibition of gp120 binding to 17b
[13] = molecular target: T1, HIV-1 YU-2 gp120 (wild-type gp120YU-2, …); assay: SPR competition on gp120; which of sCD4 or 17b is not said
[14] = molecular target: T1, HIV-1 YU-2 gp120 (wild-type gp120YU-2, …); assay: SPR competition (Biacore 3000): 250 nM gp120 YU-2 with increasing peptide over immobilised mAb 17b; inhibition of mAb 17b binding to gp120
[15] = molecular target: T1, HIV-1 YU-2 gp120 (wild-type gp120YU-2, …); assay: SPR competition (Biacore 3000): 250 nM gp120 YU-2 with increasing peptide over immobilised sCD4; inhibition of CD4 binding to gp120
[16] = molecular target: T1, HIV-1 YU-2 gp120 (wild-type gp120YU-2, …); assay: SPR competition: fixed 250 nM HIV-1 YU-2 gp120 with increasing peptide passed over immobilized sCD4; inhibition of gp120 binding to sCD4; remark: listed apart in the source
[17] = molecular target: T1, HIV-1 YU-2 gp120 (wild-type gp120YU-2, …); assay: SPR competition: fixed 250 nM HIV-1 YU-2 gp120 with increasing peptide passed over immobilized mAb 17b; inhibition of gp120 binding to 17b; remark: listed apart in the source

B1: AAR031 (peptide)
peptide: DNI[Pro(cis-4-Trz(4-CH2CH2Ph))]W[Orn]-NH2
modifications: lactam 1-6; N-terminus assumed
SMILES: CC[C@H](C)[C@@H]1NC(=O)[C@H](CC(N)=O)NC(=O)[C@@H](N)CC(=O)NCCC[C@@H](C(N)=O)NC(=O)[C@H](Cc2c[nH]c3ccccc23)NC(=O)[C@@H]2C[C@H](n3cc(CCc4ccccc4)nn3)CN2C1=O
IC50 [1]: 3900 nM
IC50 [2]: 5700 nM

B2: AAR030 (peptide)
peptide: ENI[Pro(cis-4-Trz(4-CH2CH2Ph))]W[Dab]-NH2
modifications: lactam 1-6
notes: also called macrocycle AAR030
IC50 [1]: > 20000 nM
IC50 [2]: > 20000 nM

B3: AAR036 (peptide)
peptide: DN[Nle][X2]WK-NH2
modifications: lactam 1-6
IC50 [1]: ~2000 nM
IC50 [2]: ~2000 nM

B4: AAR026 (peptide)
peptide: ENNI[Pro(cis-4-Trz(4-CH2CH2Ph))]WK-NH2
modifications: lactam 1-7; N-terminus assumed
SMILES: CC[C@H](C)[C@@H]1NC(=O)[C@H](CC(N)=O)NC(=O)[C@H](CC(N)=O)NC(=O)[C@@H](N)CCC(=O)NCCCC[C@@H](C(N)=O)NC(=O)[C@H](Cc2c[nH]c3ccccc23)NC(=O)[C@@H]2C[C@H](n3cc(CCc4ccccc4)nn3)CN2C1=O
notes: Cyclic peptide triazole
IC50 [3]: 541 nM
IC50 [4]: 540 nM
IC50 [5]: 384 nM
IC50 [2]: 541 nM

B5: AAR029b (peptide)
peptide: DNI[X2]WK-NH2
modifications: lactam 1-6
notes: Ferrocenyl analogue of AAR029
IC50 [1]: 35 nM
IC50 [2]: 32 nM
IC50, HIV-1 infection inhibition, Bal.01 pseudotyped virus [6]: 210 nM
IC50, HIV-1 infection inhibition, JR-FL pseudotyped virus [7]: 190 nM
gp120 shedding EC50 (JR-FL pseudotyped virus, Western blot densitometry of supernatant) [8]: 316 nM

B6: AAR032 (peptide)
peptide: DNI[Pro(cis-4-Trz(4-CH2CH2Ph))]W[Dab]-NH2
modifications: lactam 1-6; N-terminus assumed
SMILES: CC[C@H](C)[C@@H]1NC(=O)[C@H](CC(N)=O)NC(=O)[C@@H](N)CC(=O)NCC[C@@H](C(N)=O)NC(=O)[C@H](Cc2c[nH]c3ccccc23)NC(=O)[C@@H]2C[C@H](n3cc(CCc4ccccc4)nn3)CN2C1=O
IC50 [1]: 400 nM
IC50 [2]: 500 nM
fold improvement vs AAR031 [9]: ~10 fold

B7: AAR024b (peptide)
peptide: IENI[X3]WK-NH2
modifications: lactam 2-7
notes: Ferrocenyl analogue of AAR024
IC50 [1]: 37.6 nM
IC50 [2]: 40 nM
IC50, HIV-1 infection inhibition, Bal.01 pseudotyped virus [6]: 650 nM
IC50, HIV-1 infection inhibition, JR-FL pseudotyped virus [7]: 603 nM

B8: AAR024A (peptide)
peptide: IENI[Pro(cis-4-Trz(4-CH2CH2Ph))]WK-NH2
modifications: N-terminus assumed
SMILES: CC[C@H](C)[C@H](N)C(=O)N[C@@H](CCC(=O)O)C(=O)N[C@@H](CC(N)=O)C(=O)N[C@H](C(=O)N1C[C@@H](n2cc(CCc3ccccc3)nn2)C[C@H]1C(=O)N[C@@H](Cc1c[nH]c2ccccc12)C(=O)N[C@@H](CCCCN)C(N)=O)[C@@H](C)CC
notes: Acyclic (linear) counterpart of AAR024; also called acyclic analogue of AAR024; linear AAR024A
IC50 [10]: 7890 nM
IC50 [1]: 11300 nM
IC50 [2]: 7890 nM
fold less active than AAR024 [11]: 50 fold
IC50 [12]: 11300 nM

B9: AAR024 (peptide)
peptide: IENI[Pro(cis-4-Trz(4-CH2CH2Ph))]WK-NH2
modifications: lactam 2-7; N-terminus assumed
SMILES: CC[C@H](C)[C@H](N)C(=O)N[C@H]1CCC(=O)NCCCC[C@@H](C(N)=O)NC(=O)[C@H](Cc2c[nH]c3ccccc23)NC(=O)[C@@H]2C[C@H](n3cc(CCc4ccccc4)nn3)CN2C(=O)[C@H]([C@@H](C)CC)NC(=O)[C@H](CC(N)=O)NC1=O
notes: Cyclic peptide triazole; also called cyclic heptapeptide AAR024
fold more active than the linear AAR024A [13]: > 40 fold
IC50 [14]: 269 nM
IC50 [15]: 138 nM

B10: AAR029F (peptide)
peptide: DNI[(2S,4S)‑4‑(4-(adamantan-2-yl)-1H-1,2,3-triazol-1-yl)pyrrolidine‑2‑carboxylic acid]WK-NH2
modifications: lactam 1-6
IC50 [1]: ~200 nM
IC50 [2]: ~200 nM
IC50, HIV-1 infection inhibition, Bal.01 pseudotyped virus [6]: ~1300 nM

B11: AAR029H (peptide)
cyclic peptide: DNI[(2S,4S)‑4‑(4-(4-ethylphenyl)-1H-1,2,3-triazol-1-yl)pyrrolidine‑2‑carboxylic acid]WK-NH2
modifications: lactam 1-6
IC50 [1]: ~245 nM
IC50 [2]: ~318 nM
IC50, HIV-1 infection inhibition, Bal.01 pseudotyped virus [6]: ~1900 nM

B12: AAR029E (peptide)
peptide: DNI[X2][Bta]K-NH2
modifications: lactam 1-6
IC50 [1]: ~20 nM
IC50 [2]: ~20 nM
IC50, HIV-1 infection inhibition, Bal.01 pseudotyped virus [6]: 26 nM

B13: AAR042 (peptide)
peptide: DN[Gly(cPr)][X2]WK-NH2
modifications: lactam 1-6
IC50 [1]: ~2000 nM
IC50 [2]: ~2000 nM

B14: AAR029 (peptide)
peptide: DNI[Pro(cis-4-Trz(4-CH2CH2Ph))]WK-NH2
modifications: lactam 1-6
notes: Cyclic hexapeptide triazole; also called minimized hexapeptide AAR029; macrocycle AAR029
IC50 [4]: 85 nM
IC50 [16]: 85.2 nM
IC50 [5]: 96 nM
IC50 [17]: 95.5 nM
fold more active than AAR029A [13]: > 200 fold
IC50, HIV-1 infection inhibition, Bal.01 pseudotyped virus [6]: 2020 nM
IC50, HIV-1 infection inhibition, JR-FL pseudotyped virus [7]: 2330 nM
fold enhanced activity vs AAR029b [9]: ~2 fold
